According to US20190194358A1 (ARIZONA BOARD OF REGENTS A BODY CORPORATE OF THE STATE OF …, published 2019):

T1: Gal80 (UniProt P04387 1-435, limits assumed)
T1 construct: Cy3/Cy5 labelled on arrays, immobilised for SPR and ELISA
T1 sequence (looked up): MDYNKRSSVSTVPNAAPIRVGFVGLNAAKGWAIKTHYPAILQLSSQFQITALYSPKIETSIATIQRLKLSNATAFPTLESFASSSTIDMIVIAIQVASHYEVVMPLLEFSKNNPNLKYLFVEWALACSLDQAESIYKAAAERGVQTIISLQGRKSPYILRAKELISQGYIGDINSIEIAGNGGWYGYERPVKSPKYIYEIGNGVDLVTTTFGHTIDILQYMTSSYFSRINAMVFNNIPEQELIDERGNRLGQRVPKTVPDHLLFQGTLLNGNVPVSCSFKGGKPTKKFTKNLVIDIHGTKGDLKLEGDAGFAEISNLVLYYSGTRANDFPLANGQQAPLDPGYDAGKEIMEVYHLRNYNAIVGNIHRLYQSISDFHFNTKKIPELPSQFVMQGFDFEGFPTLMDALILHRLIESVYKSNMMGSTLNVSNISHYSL

B1: BP2 variant EGEITEGKKSKLGSC (peptide)
peptide: EGEITEGKKSKLGSC
notes: Synthesised in situ on a light-directed array
B2: BP2 variant EGEDTEGKKSKTGSC (peptide)
peptide: EGEDTEGKKSKTGSC
notes: as for B1
B3: BP2 variant EGEITEGKKSKIGSC (peptide)
peptide: EGEITEGKKSKIGSC
notes: as for B1
B4: BP2 variant EGEDTEGKKSKEGSC (peptide)
peptide: EGEDTEGKKSKEGSC
notes: as for B1
B5: BP2 variant EGEKTEGKKSKGGSC (peptide)
peptide: EGEKTEGKKSKGGSC
notes: as for B1
B6: BP2 variant EGEITEGKKSKRGSC (peptide)
peptide: EGEITEGKKSKRGSC
notes: as for B1
B7: BP2 variant EGEKTEGKKSKLGSC (peptide)
peptide: EGEKTEGKKSKLGSC
notes: as for B1
B8: BP2 variant EGEDTEGKKSKLGSC (peptide)
peptide: EGEDTEGKKSKLGSC
notes: as for B1
B9: BP2 variant EGEWTEGKKSKTGSC (peptide)
peptide: EGEWTEGKKSKTGSC
notes: as for B1
B10: BP2 variant EGEWTEGKKSKLGSC (peptide)
peptide: EGEWTEGKKSKLGSC
notes: as for B1
B11: BP2 variant EGEWTEGKKSKEGSC (peptide)
peptide: EGEWTEGKKSKEGSC
notes: as for B1
B12: BP2 variant EGEDTEGKKSKRGSC (peptide)
peptide: EGEDTEGKKSKRGSC
notes: as for B1
B13: BP2 variant EGEITEGKKSKEGSC (peptide)
peptide: EGEITEGKKSKEGSC
notes: as for B1
B14: BP2 variant EGEWTEGKKSKIGSC (peptide)
peptide: EGEWTEGKKSKIGSC
notes: as for B1
B15: BP2 variant EGEITEGKKSKSGSC (peptide)
peptide: EGEITEGKKSKSGSC
notes: as for B1
B16: BP2 variant EGEDTEGKKSKIGSC (peptide)
peptide: EGEDTEGKKSKIGSC
notes: as for B1
B17: BP2 variant EGEITEGKKSKTGSC (peptide)
peptide: EGEITEGKKSKTGSC
notes: as for B1
B18: BP2 variant EGEWTEGKKSKRGSC (peptide)
peptide: EGEWTEGKKSKRGSC
notes: as for B1
B19: BP2 variant EGEKTEGKKSKTGSC (peptide)
peptide: EGEKTEGKKSKTGSC
notes: as for B1
B20: BP2 variant EGEWTEGKKSKGGSC (peptide)
peptide: EGEWTEGKKSKGGSC
notes: as for B1
B21: BP2 variant EGEDTEGKKSKGGSC (peptide)
peptide: EGEDTEGKKSKGGSC
notes: as for B1
B22: BP2 variant EGEKTEGKKSKEGSC (peptide)
peptide: EGEKTEGKKSKEGSC
notes: as for B1
B23: BP2 variant EGEITEGKKSKGGSC (peptide)
peptide: EGEITEGKKSKGGSC
notes: as for B1
B24: BP2 variant EGEITEGKGSKKGSC (peptide)
peptide: EGEITEGKGSKKGSC
notes: as for B1

Target: T1, Gal80
Test: light-directed peptide array, 25 µM labelled GAL80 with 1 mg/mL E. coli lysate; relative to template BP2;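 further: array read-out by fluorescence scanning, library of 10,000 peptides varied at four positions with ten residue choices, each feature present in triplicate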
From the text: The chemically diverse set of 10 amino acids {I,D,W,L,E,G,T,S,K,R} were selected as the amino acids to substitute into the four variable positions for a total of 10,000 unique variant peptides. Three replicates were included in the array to produce a total of 30,000 array features. […] The resulting array was imaged using a commercial fluorescence scanner.

Fold Enhancement | Binder
11.1 fold | B1
10.2 fold | B2
11.3 fold | B3
10.1 fold | B4
9.24 fold | B5
10.5 fold | B6
9.81 fold | B7
10.4 fold | B8
10.5 fold | B9
10.7 fold | B10
10.7 fold | B11
10.4 fold | B12
10.9 fold | B13
10.4 fold | B14
9.91 fold | B15
10.4 fold | B16
10.6 fold | B17
11 fold | B18
8.5 fold | B19
11.1 fold | B20
10.8 fold | B21
9.7 fold | B22
10.8 fold | B23
9.87 fold | B24
9.72 fold | EGEITEGKLSKKGSC [BP2 variant EGEITEGKLSKKGSC]

Target: T2, transferrin (human, UniProt P02787 20-698)
T2 construct: also called TRF; pooled human transferrin (Sigma)
Test: peptide microarray with organic prewash, Alexa 555 transferrin with Alexa 647 E. coli lysate; rank by the score of Example 2

T2 sequence (P02787 20-698 limits assumed): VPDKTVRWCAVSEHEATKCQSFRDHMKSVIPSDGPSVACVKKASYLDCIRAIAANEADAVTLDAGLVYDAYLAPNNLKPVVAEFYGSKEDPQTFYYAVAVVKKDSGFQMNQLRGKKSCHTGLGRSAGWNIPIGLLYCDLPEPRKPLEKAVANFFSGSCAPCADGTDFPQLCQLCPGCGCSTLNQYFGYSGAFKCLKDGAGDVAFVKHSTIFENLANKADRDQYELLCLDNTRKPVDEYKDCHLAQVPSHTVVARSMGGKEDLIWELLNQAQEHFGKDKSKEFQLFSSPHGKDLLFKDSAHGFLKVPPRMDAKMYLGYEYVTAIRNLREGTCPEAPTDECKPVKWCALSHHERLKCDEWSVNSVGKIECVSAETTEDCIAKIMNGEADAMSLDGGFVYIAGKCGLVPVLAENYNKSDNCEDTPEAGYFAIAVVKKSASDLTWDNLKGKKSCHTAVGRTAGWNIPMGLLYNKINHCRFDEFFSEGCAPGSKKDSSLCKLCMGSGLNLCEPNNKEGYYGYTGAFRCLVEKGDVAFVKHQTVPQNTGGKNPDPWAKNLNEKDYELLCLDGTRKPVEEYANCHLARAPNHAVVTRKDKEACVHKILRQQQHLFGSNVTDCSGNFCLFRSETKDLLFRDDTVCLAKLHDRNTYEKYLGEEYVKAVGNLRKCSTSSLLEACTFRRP

Rank -- prewash | Binder
61 rank | HAYKGPGDMRRFNHSGMGSC (20-mer ending GSC) [TRF22]
289 rank | GQTQFAMHRFQQWYKIKGSC (20-mer ending GSC) [TRF20]
3320 rank | LDPLFNTSIMVNWHRWMGSC [TRF27]

Target: T2, transferrin
Test: peptide microarray without organic prewash, Alexa 555 transferrin with Alexa 647 E. coli lysate; rank by the score of Example 2

Rank - non-prewash | Binder
711 rank | HAYKGPGDMRRFNHSGMGSC (20-mer ending GSC) [TRF22]
18 rank | GQTQFAMHRFQQWYKIKGSC (20-mer ending GSC) [TRF20]
1290 rank | LDPLFNTSIMVNWHRWMGSC [TRF27]
